Data published in the DeepSol protein solubility set.

Test: soluble on expression in E. coli; label from the status in PepcDB or PDB records

Sequence | soluble on expression in E. coli
MGSDKIHHHHHHMGLGHEQGFGAPCLKCKENCEGFELHFWRKICRNCKCGQEEHDVLLSNEEDRKVGRLFEDTKYTTLIAKLKSDGIPMYKRNVMILTNPVAAKKNVSINTVTYEWAPPVQNQALARQYMQMLPKEKQPVAGSEGAQYRKKQLAKQLPAHDQDPSKCHELSPKEVKEMEQFVKKYKSEALGVGDVKFPSEMNAQGDKVHNPAGDRHAPAAVASKDKSAESKKTQYSCYCCKHTMNEGEPAIYAERAGYDKLWHPACFICSTCGELLVDMIYFWKNGKLYCGRHYCDSEKPRCAGCDELIFSNEYTQAENQNWHLKHFCCFDCDHILAGKIYVMVTDKPVCKPCYVKNHAVVCQGCHNAIDPEVQRVTYNNFSWHASTECFLCSCCSKCLIGQKFMPVEGMVFCSVECKRMMS | soluble
MMPNVAPNSYYLNIPNANSTSTTTSSIFSDLNKEYESKIKEIEEYYIKTLLNENTDNDDSSSSEGHNINETDILSEYSPRPSPWLPSKPNCYHPLGDFKDLIISDSRPTNTLPINNPFAGNNNISTLATTEKKRKKRSLEVRVNPTYTTSAFSLPLTAENLQKLSQVDSQSTGLPYTLPIQKTTKLEPCRRAPLQLPQLVNKTLYKTELCESFTIKGYCKYGNKCQFAHGLNELKFKKKSNNYRTKPCINWSKLGYCPYGKRCCFKHGDDKDVEIYQNANDGRSKDTALTPLPTSLAPSNNDNITNLSKPRNLHTSVKALQRMTW | not soluble
MGSDKIHHHHHHMYRLSQYETPLFTALVEHSKRNPIQFHIPGHKKGQGMDPEFREFIGHNALAIDLINIAPLDDLHHPKGMIKEAQDLAAAAFGADHTFFSIQGTSGAIMTMVMSVCGPGDKILVPRNVHKSVMSAIIFSGAKPIFMHPEIDPKLGISHGITIQSVKKALEEHSDAKGLLVINPTYFGFAADLEQIVQLAHSYDIPVLVDEAHGVHIHFHDELPMSAMQAGADMAATSVHKLGGSLTQSSILNVKEGLVNVKHVQSIISMLTTTSTSYILLASLDVARKRLATEGTALIEQTIQLAEQVRDAINDIEHLYCPGKEMLGTDATFNYDPTKIIVSVKDLGITGHQAEVWLREQYNIEVELSDLYNILCLVTFGDTESETNTLIAALQDLSATFKNKADKGVQVQVEIPEIPVLALSPRDAFYSETEVIPFENAAGRIIADFVMVYPPGIPIFTPGEIITQDNLEYIRKNLEAGLPVQGPEDMTLQTLRVIKEYKPIS | not soluble
MRWKRTLQLLDVHCEGEIGRVVTGGAPKIPGNTVAEQLHWMNTDPQGEALRRFLTLEPRGTPMGSVDLLLPPKHPDAHAAFVILQPDQAHASSGSNSICATTALLESGMVEMQEPETVIILETAAGLVKATATCRDGRCEKVKLTMVPSFVHELDVSIDTPEWGRVTMDISYGGIFYALVDVRQIGLTIEKANAAKLVAAGMTLKDLVNREMTVVHPEIPAISGVAYVMFRDVDADGSIRTCTTMWPGRADRSPCGTGNSANLATLYARGKVKVGDEYKSRSIIGSEFDVGLSAVTEVAGRPAVIPTIAGRGFTFGLHQVGLDPFDPLGDGFAMTDVWGPEAGNILEHHHHHH | soluble
MNYHSTNVNEIWDACLRILQDIVDERAYRTWFLPIIPVSIEGDTLTLQVPSQFFCEFLEGNFVEQLRTVLGRVIGPNASLQYNALVDNSSPKYPGTVTLAGCADGGQAAEQFDVNLLHRHM | not soluble
MSLIRDRTEPVMSAKLPPVEPVSPTNPRSSASPGSPDRSGLPVVVSVVGLVHTPGLVTLAPGARIADALQAAGGAVDGADTVGLNMARQLGDGEQIVVGLAPPSGQPRVLGSSVGAGTPGPAGTSGTATTGPKTAPKTAEVLDLNTATVEQLDALPGIGPVTAAAIVAWRQRNGRFTSVDQLADVDGIGPARLDKRRNLVRVEGHHHHHH | soluble
MSLGGNGREKDHASELRSIFSLKKIADAVNGYEEAKYVVFGIPFDNTSSYRRGSKYAPDSIRGAYVNLESYEYSYGIDLLASGMADLGDMEESEDVEYVIDTVESVVSAVMSDGKIPIMLGGEHSITVGAVRALPKDVDLVIVDAHSDFRSSYMGNKYNHACVTRRALDLLGEGRITSIGIRSVSREEFEDPDFRKVSFISSFDVKKNGIDKYIEEVDRKSRRVYISVDMDGIDPAYAPAVGTPEPFGLADTDVRRLIERLSYKAVGFDIVEFSPLYDNGNTSMLAAKLLQVFIASREKYYKEHIEGHHHHHH | soluble
SKFLDVECLSELQRKLNDLELTDYRVRCQLEAYSCKPAGFDKKLSKSLEQKLVEQLEASPRVLEGSPVGSLEDQSARKTLINLICTLNAAHQDYDFSSLQLSRLKRVQDVRSLQQHVDSLFELFYRQLGLEFRQFLWENIGQIIRPEECEVYSYLPDYESDPYSASGALWSFCYFFYHKNMKKILFFSCTLSTRLAEDSESTESVDEEDFGKESSGLETPFAMFETVI | soluble
MSLKPIIPEDERSKEPLDTDRVIYHPDMIRANEWVLNEYEAPYRELCIFVPCAKRKPYHESPSHKKFDRIIFGIAKPEDVHIVTFGTCGITPRELDTQYPFMHYSFMMGKCNVAKIKRDFIKMESERLAAYLEKTRDNYKHRIAYCIGDFRTAMEKAVEMVDVEVDIVPRESTIQKMIQPDKPFIYNSLSSREYLQDFSDAITDALKLPKRKVGLKEDLSVDDADWYLLEGHHHHHH | soluble
MIKFYQYKNCTTCKKAAKFLDEYGVSYEPIDIVQHTPTINEFKTIIANTGVEINKLFNTHGAKYRELDLKNKLQTLSDDEKLELLSSDGMLVKRPLAVMGDKITLGFKEDQYKETWLA | not soluble
MPTASPIYDVVVVGAGISGLIATQLLDRAGLNIKCFEACSRVGGRAVSVQQSDLFLDLGATWFWLNEPLVQQLVNNLGLGTFPQAIEGDALFETLVDAPSRLRGNPIDAASGRFQAGASSLALGLAAQLKPGVLELGDPVHSLSEEDGEIVVKSSKQIVRAKHVIIAVPPALAAELIGFTLDLPADVRKAAHPQHIAVMNWAKEKYTLPTQAASAGGFGHELFQQPLGHGRIHWASTEVATEFGGHLEGAVRAGIQAALQTGFNLKSLEHHHHHH | soluble
LSKLTVVETPLEVNLPAGDNRVAVRVTPVSLNAGSLKSDAGARFGGGTSGAAGSQSDKGVGLAVAFERPEEGLKADIGTTPMGFKYTTVAGGASVDRPLGNNPDLRYGLNVSRRPVTDSVTSFAGSTDERSGLSWGGVTANGGRGQLSYDDQTIGGYGYGSWHKLVGNNVKSNTRGEVGGGVYWYLRNAEDSKLTAGLSLMGMSYDNDQSYFTYGHGGYFSPQSFYAIGVPVMWAQRTERFSYQVKSSVGVQHFKQDGAEFFPDDSTLQAASAQRYTGQSKTGIGYNLSAAGEYKLDSSLFMGASLGLDNARDYRQFSGALYLRYMFEDI | not soluble
MSMPATSTKTTKLATSLIDEYALLGWRAMLTEVNLSPKPGLVDRINCGAHKDMALEDFHRSALAIQGWLPRFIEFGACSAEMAPEAVLHGLRPIGMACEGDMFRATAGVNTHKGSIFSLGLLCAAIGRLLQLNQPVTPTTVCSTAASFCRGLTDRELRTNNSQLTAGQRLYQQLGLTGARGEAEAGYPLVINHALPHYLTLLDQGLDPELALLDTLLLLMAINGDTNVASRGGEGGLRWLQREAQTLLQKGGIRTPADLDYLRQFDRECIERNLSPGGSADLLILTWFLAQI | not soluble
MGSDKIHHHHHHMKRRILFIHNNLGGGGAEGALIEVLNHLDYNRYDVTLFLLYRTGDFIDRVPPQVHFKHEQFGRFFPGYKGKIAIRCGLRNMLLRCCAKRVFANEKYDTIVSFMESAPAKFHSYILDKGKRNITWVHCDLLNNHYTTGFFLTLKQEQKFYSRMDDVIFVSEDAKKNFSKLFGIDKGRVIYNIIDQRAICKRSKAVSSMPRHRTFTFVNVGSLKEIKRQDRIIETAALLKARGYDADFWLIGKGIWEERLKAQATALNVSDSVHFLGFQSNPYPYVAAADVFLMTSDSEGFPLVVAEAMCLGKAVISTRITGPMEMLGNGRYGILTGFSPEEIANSAISLIEDPKLLSSYQHLAYERSISYFDVNGVMTQIHDVIGN | not soluble
MSLRIKVCGIKRVEDAVMAAYCGADAIGLVVGRKHNSDDFIDKHLAQKIVRECPPYISPVLVTELDDAEEISGLVHETGVTSVQLHSDCTVDSIISLRKTFPNIKIIKNFHVIGPGVIHAMKPFESVVDAFILDTLDLANDKVGSTGLVHDWSISRKIVKEVSRPVILAGGLTPENVGEAIRVVNPYGVDASSGLKDSNGFKDEMKVINFVHRAKNDFFKVRNLSLENEGHHHHHH | soluble
MSLVYTEVPKSVATFMETITEKCGEAHQDWAKNFQAAFANTLLTTVKRQEDGTTFLLTGDIPAMWLRDSTAQVRPYLVIAKEDEDLAQMIAGLVKRQFRYICIDPYANAFNETDNHAGHQTDKTEMNGWIWERKYEIDSLCYPVQLAYLLYKNTGMTEQFNSDFVEGVKKILNVFTTEQDHAQSPYLFERDTWRQEDTLVEAGKGTPVGKTGMTWSGFRPSDDACQYGYLVPSNMFAVVILGYIQEIFSDVLEDATIGAIAKKLQEEIEEGIQTFGRTKNQNNETIYAYEVDGLGNASVMDDSNVPNLVAAPYLGYCSTEDEQYLTTRQTLLSKENPYFYEGKYAKGIGSSHTPENYVWPIALAMEGMTTKDKAEKERILDLLVATDAGTHLMHEGFDVDNPENYTREWFSWANMMFCELVMDYFDIRVEKEGGSHHHHHH | soluble
MGSDKIHHHHHHMLLTLSICNFRSFGTEATLDLQRRGFRTQHPRKDETWQENTWRRAAIFGANAAGKSNVLRALGQLKLAITHSLTNEHWVRELRDPHSLCTDEPTSFEVEYVFDDVRYRWGLTLNHSGVVEEFLEANLSSRWRRIFERTGNSLIFGSNTGISHAAKENIEQFMRPWALVFSAWNTVKTPGPFAGALQWWQTLLPVIMSNEADQHNRHQWLVQLAQKDPTWLSVLQNVVAVADVGINKIGIEEQAPDLVKKIELTIQPDGQAEITDQFDSDEITEYLRYLMFEHSDGIHTFSLPETQESQGTKAWMDLAIPALFALSVGGVLSIDEIDGSLHPLLVRELVSYFDNSELNPLGAQLLFSTHDLTLLGKYPAESLHRGEVWLVEKERSYSELIALDEFPIRDAHNIEKRYLQGTYGAVPISNTTELLHTLEVLREKYTKMKQQ | not soluble
MAHHHHHHMEYDKEKMESLVSKVKEKFGKKVEIVNLKLDVKMPLFEIFLQASIHTQIKIFYARGRTLQYRLPPVFWTRCKILKENKILQEKYGGECAPGLFPQYDEYNIMQIMTECVYNDKYNFYVYDVNLEWENLCALTPENRELRKIVHQNVHVPTRLAVIKAFEQGVEDFRDVIREEYLIMLREQRKLKENKKYKF | not soluble
MSLDCSIKMLKDVPVKMRDGITIYTDIYLPITEEKVPTLIAWSPYGKSAGTAPRYKNLFNMLGMGNAWNSGLTKFEAPDPAYWCAHGYAVCNPDMRGIAHSEGNTTMIGSQEAEDGYDLIEWLAKQSWSNGKTALTGTSYLAFSQWYIAAEQPPHLTCINPTEGLADGYRDLAFIGGIPDPNFIERLQINHVSAKNSQREDLTKEMEAYPLADSAIWKDKVADPSKITIPAFVIASYSNTLHTMGTFRSWRSLGSKEKWLRIHDRQEWPYYYDENNVEELRRFFDYYLLGKENNWTDTPTVRYALIDFQGGNQTDLPSEVFPPTNSENKRYYMNGLLRTLQETPTSDDFKVSYTTENLPGRASFQMTFDKETHFVGYPKAKLFMEVDGYDDLDVFVWLQKLDKFGNVLSEFVVPNHGAALQDFTQEGASALRYKGAWGRLRASMRQLDSQVSTDEIPAYSFDKVEKLSSGEIVELDIILSPIGLTYKAGETLRVVVSSKDELGSVMPGTPGCTPNNKGMHILHTSKEHPSYIQLPIINKEGHHHHHH | soluble
NRGVTGGFGITQDITERKKVEEALRISNIYNRSLIEASPDPLVTIGQDGKITDVNNSTETVTGYSRDELIGTDFSDYFTEPERAKKGYQHVFLKGFVKDYPLEIQHKDGRVTQVLYNASVYRDESGEVIGVFAAARD | not soluble
